Source: patent publication US6989144

Target: GPVI on baboon platelets (baboon)
Test: flow cytometry, washed baboon platelets; positive control

B1: convulxin (Cvx) purified from the venom of Crotalus durissus terrificus (ligand)
chain 1: GLHCPSDWYYYDQHCYRIFNEEMNWEDAEWFCTKQAKGAHLVSIKSAKEADFVAWMVTQNIEESFSHVSIGLRVQNKEKQCSTKWSDGSSVSYDNLLDLYITKCSLLKKETGFRKWFVASCIGKIPFVCKFPPQC
chain 2: GFCCPSHWSSYDRYCYKVFKQEMTWADAEKFCTQQHTGSHLVSFHSTEEVDFVVKMTHQSLKSTFFWIGANNIWNKCNWQWSDGTKPEYKEWHEEFECLISRTFDNQWLSAPCSDTYSFVCKFEA
  Baboon fluorescence intensity: 72
  Baboon platelets % positive: 95%
